According to US20210017278A1 (PROTHENA BIOSCIENCES, published 2021):

Key:
Assay in all cases: ELISA, peptide coated on plate, HRP secondary, A490
[1] = molecular target: T1, peptide HGDT (SEQ ID NO: 21)
T1 construct: Coated on ELISA plates; also called X1GDX2 peptide
T1 peptide: HGDT
From the text: (§1) ELISA plates were coated with indicated peptides, blocked, and assayed with either NEOD001 or 2A4, as indicated. After washing, appropriate horseradish peroxidase-conjugated secondary antibodies were applied. The plate was then washed and developed with o-phenylenediamene, and absorbance was read at 490 nm.
(§2) ELISA plates were coated with peptides having the amino acid sequence HEDT (SEQ ID NO: 19), AEDS (SEQ ID NO: 20), or HGDT (SEQ ID NO: 21), blocked, and assayed with either NEOD001 (an antibody with a light chain having the amino sequence set forth as SEQ ID NO: 13 and a heavy chain having the amino acid sequence set forth as SEQ ID NO: 14) or 2A4 (ATCC Accession Number 9662), as indicated. After washing, appropriate horseradish peroxidase-conjugated secondary antibodies were applied. The plate was then washed and developed with o-phenylenediamene, and absorbance was read at 490 nm.

[2] = molecular target: T2, peptide HEDT (SEQ ID NO: 19)
T2 construct: Coated on ELISA plates; also called X1EDX2 peptide
T2 peptide: HEDT
From the text: as §1, §2

[3] = molecular target: T3, peptide AEDS (SEQ ID NO: 20)
T3 construct: Coated on ELISA plates; also called X1EDX2 peptide
T3 peptide: AEDS
From the text: as §1, §2

Measured: binding result

B1: NEOD001 (antibody, human IgG1, kappa, V domains shown)
VH: EVQLVESGGGLVQPGGSLRLSCAASGFTFNTYAMYWIRQAPGKGLEWVARIRSKSNNYAIYYADSVKDRFTISRDDSKNSLYLQMNSLKTEDTAVYYCARPYSDSFAYWGQGTLVTVSS
VL: DVVMTQSPLSLPVTPGEPASISCRSSQSLVHSTGNTYLHWYLQKPGQSPQLLIYKVSNRFSGVPDRFSGSGSGTDFTLKISRVEAEDVGVYYCSQSTHVPFTFGGGTKVEIKR
notes: It shares the CDRs of murine antibody 2A4; also called humanized version of antibody 2A4
binds: all assays above
